The numbers were not newly measured in paper PMC7508936, which cites them from elsewhere.

The target of the data set is galectin-1 (Homo sapiens) (UniProt P09382).
UniProt P09382, sequence (P09382 2-135): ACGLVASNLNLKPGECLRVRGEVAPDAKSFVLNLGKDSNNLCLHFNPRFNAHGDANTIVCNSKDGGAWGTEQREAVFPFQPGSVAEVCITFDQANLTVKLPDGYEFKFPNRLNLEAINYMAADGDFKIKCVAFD

Take PSG1 (from UniProt P11464): the Kd is 0.13 µM.
